Measured values from patent publication US20240344138A1, “TARGETED THERAPIES IN CANCER” (Feng Biosciences, Inc, priority 2021, published 2024).

Key:
mCRC = conditions: phase II single arm study; cited from earlier work
MDSC functions = conditions: pre-clinical models; cited from earlier work
[1] = test system: metastatic colorectal cancer patients; assay: Retrospective analysis of anti-angiogenic therapy (bevacizumab) in metastatic colorectal cancer by TME phenotype; assay type: in vivo, human; conditions: A and IS patients
Method: The analysis includes 60 colorectal cancer tumor samples.
To test if TME phenotypes correlate with clinical outcomes when patients are treated with an angiogenesis inhibitor, tumor stroma RNA gene signatures are analyzed from archival tissues collected from 60 colorectal cancer patients (30 left-sided, 30 right-sided) using an ANN classifier such as the TME Panel-1 classifier. The correlation between each TME phenotype is tested against clinical outcome data. In A and IS patients, the use of bevacizumab confers gains in comparison to patients classified to IA and ID TME phenotypes: in A and IS patients median PFS and OS shifts to 15 months and 39 months, respectively. Progression-free survival and OS data in IA and ID patients are consistent with historical values. Overall, the A and IS TME phenotypes correlate specifically with improved clinical outcomes with angiogenesis inhibitors and has a predictive effect with respect to PFS.

[2] = test system: stage III or IV of ovarian cancer; conditions: ovarian cancer stage III or IV after initial surgery; bevacizumab added to carboplatin and paclitaxel versus without; cited from earlier work
[3] = test system: advanced colorectal cancers metastatic to liver (mCRC); conditions: 3L+ mCRC metastatic to liver; cited from earlier work
[4] = test system: non-small cell lung cancer (NSCLC); conditions: cited from earlier work
[5] = test system: non-small cell lung cancer (NSCLC); assay: Retrospective ANN analysis of Phase 3 trial of tislelizumab with pemetrexed and a platinum agent; assay type: in vivo, human; conditions: biomarker positive group (IA or IS)
Source text: A retrospective analysis of 100 RNA signatures from a Phase 3 clinical trial of non-small cell lung cancer (NSCLC) with the anti-PD-1 checkpoint inhibitor tislelizumab in combination with the chemotherapeutic agents pemetrexed and a platinum agent (cisplatin or carboplatin) is run using the ANN method. […] After the retrospective ANN analysis, the biomarker positive group (IA or IS) is shown to have a PFS of 15.0 months with the combination therapy of tislelizumab and chemotherapy.

[6] = test system: colorectal cancer in dMMR or MSI-H status patients; assay: Clinical trial of bavituximab and an anti-PD-1 checkpoint inhibitor in dMMR or MSI-H colorectal cancer, outcome by TME phenotype; assay type: in vivo, human
Method: A clinical trial is run to determine whether colorectal cancer TME phenotypes correlate to clinical responses when patients with dMMR or MSI-H status are treated with a combination of a checkpoint inhibitor and bavituximab. The analysis includes 40 colorectal cancer tumor samples.
An anti-PD-1 checkpoint inhibitor is known to increase PFS and OS in dMMR or MSI-H status patients with advanced colorectal cancer (CRC), compared to chemotherapy. CRC patients with dMMR or MSI-H have the option of anti-PD-(L)1 after advancement on appropriate front-line therapy. Patients are classified according to an ANN method such as the TME Panel-1 classifier. […] RNA gene signatures are analyzed from biopsy samples prior to treatment with anti-PD-1. The TME phenotypes are correlated with ORR and with 20-week PFS. […] 40 patients are enrolled, 10 in each of the 4 TME phenotypes. The correlation between each tumor TME phenotype is tested against clinical outcome data. In IA or IS patients the use of bavituximab and anti-PD-(L)1 confers gains in comparison to patients classified to angiogenic (A), and immune desert (ID) TME phenotypes as shown in TABLE 18.

melanoma = assay: Phase 2 trial of adjuvant bavituximab and radiation after neoadjuvant immune checkpoint inhibitor, outcome by TME phenotype; assay type: in vivo, human
Method: A phase 2 clinical trial is run to determine whether melanoma tumor microenvironment phenotypes correlate to clinical responses when patients are treated with adjuvant Bavituximab and radiation following neoadjuvant immune checkpoint inhibitor treatment and surgical resection of stage 2b lymph nodes. The analysis includes samples from 20 patients. RNA gene signatures are analyzed from tumor samples acquired as surgical resections and TME phenotypes are determined. Patients are followed for ORR.
Melanoma patients receive a course of neoadjuvant immune checkpoint inhibitor (anti-PD-(L)1—i.e., an inhibitor to PD-1 or PD-L1) therapy and their stage 2b lymph nodes are resected. Radiation and Bavituximab are given as adjuvant therapy. The TME phenotypes from resected tumor samples are correlated to ORR. […] (20) patients are enrolled, with equal representation across the 4 stromal phenotypes (5 in each phenotype). The correlation between each TME phenotype is tested against clinical outcome data. In biomarker positive patients, represented by immune active (IA) and immune suppressed (IS) phenotypes, the use of the regimen of Bavituximab/radiation confers benefit in comparison to patients classified as biomarker negative, comprised of angiogenic (A) and immune desert (ID) TME phenotype classes, as shown in the TABLE 33.

[7] = test system: advanced solid tumors in colorectal, triple-negative breast cancer, gastric, and ovarian cancers; assay: Phase 2 open-label basket study of navicixizumab monotherapy or with paclitaxel or irinotecan, retrospective analysis by TME phenotype; assay type: in vivo, human; conditions: combined A and IS groups
Method: A retrospective analysis of a signal-finding Phase 2 clinical trial is conducted. Patient samples from thirty patients in a phase 2, multicenter, open-label basket study of navicixizumab monotherapy or in combination with the chemotherapeutics paclitaxel or irinotecan in patients with advanced solid tumors in colorectal, triple-negative breast cancer, gastric, and ovarian cancers. Patients in the combined A and IS groups that received navicixizumab monotherapy have an ORR greater than 40%. Patients in the combined A and IS groups that receive navicixizumab and chemotherapy have an ORR greater than 50%.

[8] = test system: colorectal cancer patients; assay: Clinical trial of navicixizumab and chemotherapy in colorectal cancer, outcome by TME phenotype; assay type: in vivo, human
Method: A clinical trial is run to show benefit of anti-angiogenesis therapy in CRC by identifying patients based on their stromal phenotypes. RNA gene signatures are analyzed from biopsy samples prior to treatment with navicixizumab and chemotherapy (such as paclitaxel, FOLFOX, FOLFIRI, etc.). The stromal phenotypes are correlated with ORR, PFS, and OS. The analysis includes 40 colorectal cancer patients with treated with navicizumab and chemotherapy in the first-line setting.

ramucirumab plus FOLFIRI: anti-angiogenic ramucirumab plus the chemotherapeutic FOLFIRI
ORR (mCRC): 58%
OS (mCRC): 20.4 mos
PFS (mCRC): 11.5 months

CCCc1nn(C)c2c(=O)[nH]c(-c3cc(S(=O)(=O)N4CCN(C)CC4)ccc3OCC)nc12 [sildenafil]
effect on MDSC functions (MDSC functions): significantly inhibited the MDSC functions

bevacizumab
median OS [1]: 39 months
median PFS [1]: 15 months
Progression-free survival [2]: 18 months

CNC(=O)c1cc(Oc2ccc(NC(=O)Nc3ccc(Cl)c(C(F)(F)F)c3)c(F)c2)ccn1 [regorafenib]
median OS (mOS) [3]: ~7 months
median PFS (mPFS) [3]: ~2 months

carboplatin and paclitaxel
Progression-free survival [2]: 13 months

trifluoridine/tipiracil
median OS (mOS) [3]: ~7 months
median PFS (mPFS) [3]: ~2 months

B1: tislelizumab plus chemotherapy: anti-PD-1 checkpoint inhibitor tislelizumab with pemetrexed and a platinum agent (cisplatin or carboplatin) (antibody, chains of the INN, looked up)
heavy: QVQLQESGPGLVKPSETLSLTCTVSGFSLTSYGVHWIRQPPGKGLEWIGVIYADGSTNYNPSLKSRVTISKDTSKNQVSLKLSSVTAADTAVYYCARAYGNYWYIDVWGQGTTVTVSSASTKGPSVFPLAPCSRSTSESTAALGCLVKDYFPEPVTVSWNSGALTSGVHTFPAVLQSSGLYSLSSVVTVPSSSLGTKTYTCNVDHKPSNTKVDKRVESKYGPPCPPCPAPPVAGGPSVFLFPPKPKDTLMISRTPEVTCVVVAVSQEDPEVQFNWYVDGVEVHNAKTKPREEQFNSTYRVVSVLTVVHQDWLNGKEYKCKVSNKGLPSSIEKTISKAKGQPREPQVYTLPPSQEEMTKNQVSLTCLVKGFYPSDIAVEWESNGQPENNYKTTPPVLDSDGSFFLYSKLTVDKSRWQEGNVFSCSVMHEALHNHYTQKSLSLSLG
light: DIVMTQSPDSLAVSLGERATINCKSSESVSNDVAWYQQKPGQPPKLLINYAFHRFTGVPDRFSGSGYGTDFTLTISSLQAEDVAVYYCHQAYSSPYTFGQGTKLEIKRTVAAPSVFIFPPSDEQLKSGTASVVCLLNNFYPREAKVQWKVDNALQSGNSQESVTEQDSKDSTYSLSSTLTLSKADYEKHKVYACEVTHQGLSSPVTKSFNRGEC
modifications: plus pemetrexed and platinum chemotherapy
hazard ratio (PFS) ([4]; tislelizumab plus chemotherapy versus chemotherapy alone): 0.645
median PFS ([4]; without stratification into stromal phenotypes): 9.7 mo
PFS [5]: 15.0 months

B2: bavituximab and an anti-PD-1 checkpoint inhibitor: phosphotidylserine-targeting antibody bavituximab in combination with anti-PD-1 (antibody, chains of the INN, looked up, V domains shown)
VH: EVQLQQSGPELEKPGASVKLSCKASGYSFTGYNMNWVKQSHGKSLEWIGHIDPYYGDTSYNQKFRGKATLTVDKSSSTAYMQLKSLTSEDSAVYYCVKGGYYGHWYFDVWGAGTTVTVSS
VL: DIQMTQSPSSLSASLGERVSLTCRASQDIGSSLNWLQQGPDGTIKRLIYATSSLDSGVPKRFSGSRSGSDYSLTISSLESEDFVDYYCLQYVSSPPTFGAGTKLELK
modifications: plus anti-PD-1 checkpoint inhibitor
ORR (%) ([6]; A (n = 10)): 0%
PFS % at 20 weeks ([6]; A (n = 10)): 0%
ORR (%) ([6]; IA (n = 10)): 90%
PFS % at 20 weeks ([6]; IA (n = 10)): 100%
ORR (%) ([6]; ID (n = 10)): 0%
PFS % at 20 weeks ([6]; ID (n = 10)): 0%
ORR (%) ([6]; IS (n = 10)): 90%
PFS % at 20 weeks ([6]; IS (n = 10)): 100%

B3: Bavituximab plus radiation (antibody, chains of the INN, looked up, V domains shown)
VH: B2 VH
VL: B2 VL
modifications: plus radiation
Overall response rate (ORR) (melanoma; Biomarker Negative (n = 10)): 60%
Overall response rate (ORR) (melanoma; Biomarker Positive (n = 10)): 90%
Overall response rate (ORR) (melanoma; TME phenotype A (n = 5)): 60%
Overall response rate (ORR) (melanoma; TME phenotype IA (n = 5)): 80%
Overall response rate (ORR) (melanoma; TME phenotype ID (n = 5)): 60%
Overall response rate (ORR) (melanoma; TME phenotype IS (n = 5)): 100%

B4: navicixizumab (antibody, chains of the INN, looked up, V domains shown)
VH: QVQLVQSGAEVKKPGASVKISCKASGYSFTAYYIHWVKQAPGQGLEWIGYISNYNRATNYNQKFKGRVTFTTDTSTSTAYMELRSLRSDDTAVYYCARDYDYDVGMDYWGQGTLVTVSS
VL: DIVMTQSPDSLAVSLGERATISCRASESVDNYGISFMKWFQQKPGQPPKLLIYAASNQGSGVPDRFSGSGSGTDFTLTISSLQAEDVAVYYCQQSKEVPWTFGGGTKVEIK
VH2: QVQLVQSGAEVKKPGASVKVSCKASGYTFTNYWMHWVRQAPGQGLEWMGDINPSNGRTSYKEKFKRRVTLSVDKSSSTAYMELSSLRSEDTAVYFCTIHYDDKYYPLMDYWGQGTLVTVSS
VL2: B4 VL
notes: anti-VEGF/anti-DLL4 bispecific antibody
ORR [7]: greater than 40%

B5: navicixizumab and chemotherapy: anti-VEGF/anti-DLL4 bispecific antibody navicixizumab with chemotherapy (such as paclitaxel, FOLFOX, FOLFIRI, irinotecan) (antibody, chains of the INN, looked up, V domains shown)
VH: B4 VH
VL: B4 VL
VH2: B4 VH2
VL2: B4 VL
modifications: plus chemotherapy
ORR (%) ([8]; A (n = 10)): 90%
OS (months) ([8]; A (n = 10)): 26 months
PFS (months) ([8]; A (n = 10)): 15 months
ORR (%) ([8]; IA (n = 10)): 30%
OS (months) ([8]; IA (n = 10)): 15 months
PFS (months) ([8]; IA (n = 10)): 10 months
ORR (%) ([8]; ID (n = 10)): 45%
OS (months) ([8]; ID (n = 10)): 20 months
PFS (months) ([8]; ID (n = 10)): 13 months
ORR (%) ([8]; IS (n = 10)): 80%
OS (months) ([8]; IS (n = 10)): 25 months
PFS (months) ([8]; IS (n = 10)): 16 months
ORR [7]: greater than 50%
